The nature of the data set: yeast display, Sf9 membrane polyspecificity reagent, FACS + sequencing; frameworks hold sequencing errors. The essentials: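 After 36–48 hours of galactose induction, yeast (Saccharomyces cerevisiae BJ5465) displaying a synthetic nanobody library were stained at 4 °C for 1 hour with 10% biotinylated, detergent-solubilized Sf9 membrane reagent. Streptavidin microbeads enriched the stained cells before FACS sorting into low and high (top ~1%) gates on anti-HA and streptavidin fluorescence. Each clone's polyreactivity label reflects its gate of origin.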
In the case of “QVQLVESGGGLVQAGGSLRLSCAASGFTFAYYAMGWYRQAPGKERELVAAITSGGSTKYADSVKGRFTISRDNAKNTVYLQMNSVKPEDTAVYYCFLRGRATQWDFGYWGQGTQVTVSS”, the “polyreactivity (PSR sort gate)” value is given as “high polyreactivity”. In the case of “QVQLVESGGGLVQAGGSLRLSCAASGRIFRTYAMGWYRQAPGKERELVASISWGGGSRTYADSVKGRFTISRDNAKNTVYLQMNSLKPEDTGVYYCAADVHYTFGMDYWGQGTQVTVSS” it was “high polyreactivity”. “QVQLVESGGGLVQAGGSLRLSCAASGRIFDLYTMGWYRQAPGKERELVAAIRWSDGSTYYADSVKGRFTISRDNAKNTDYLQMNSLKPEDTAVYYCAADSRTSYYNDDYDYWGQGTQVTVSS”: the “polyreactivity (PSR sort gate)” value is “low polyreactivity”. As to “QVQLVESGGGLVQAGGSLRLSCASSGFTFYSYAMGWYRQAPGKERELVAAISKRGGSTYYADSVKGRFTISRDNAKNTVYLQMNSLQPEDTAVYYCNADYPYYYGYDYWGQGTQVTVSS”, the “polyreactivity (PSR sort gate)” value is reported as “high polyreactivity”.

“QVQLVESGGGLVQAGGSLRLSCAASGRTFRIYAMGWYRQAPGKERELVASISWSGGSTYYADSVKGRFTISRDNAKNTVYLQMNSLKPEDTAVYYCAADYPFIALYDYWGQGTQVTVSS”: the “polyreactivity (PSR sort gate)” value is given as “low polyreactivity”. For “QVQLVESGGGLVQAGGSLRLSCAASGRIFRFYAMGWYRQAPGKERELVAAITYGGGTTYYADSVKGRFTISRDNAKNTVYLQMNSLKPEDTAVYYCAADHRQGYDHEYDYWGQGTQVTVSS”, the “polyreactivity (PSR sort gate)” value was “low polyreactivity”.

Consider “QFQLVESVGGLVQAGGSLRLSCAASGSTFVRNELGWYRQAPGKERELVAANSVDGSSTYYADSVKGRFTISRDNAKNTVYLQINSLKPEDTAVYYCNADWDYRDFYDITYDYWGQGTQVTVSS”, for which the “polyreactivity (PSR sort gate)” value was “low polyreactivity”. For “QVQLVESGGGLVQAGGSLRLSCAASGRTFYGYDMGWYRQAPGKERELVATISSGGSTNYADSVKGRFTISRDNAKNTVYLQMHSLKPEDTAVYYCIARRFSGYRKGLRPYGSGMNYWGQGTQVTVSS”, the “polyreactivity (PSR sort gate)” value is on record as “low polyreactivity”. On to “QVQLVESGGGLVQAGGSLRLSCAASGSIFVTYAMGWYRQAPGKERELVAVITWGGGSTYYADSVKGRFTISRDNAKNTVYLQMNSLKPEDTAVYYCAKDSYYYRRDVTVDYWGQGTQVTVSS”, for which the “polyreactivity (PSR sort gate)” value is “low polyreactivity”. In the case of “QVQLVESGGGLVQAGGSLRLSCAASGGTFGVYYAMGRYRQAPGKERELVADISWSAGSTYYADSVKGRFTISRDNAKNTVYLQMNSLKPEDTAVYYCAARYAVYWPWYVREYDYWGQGTQVTVSS” it was “low polyreactivity”; in that of “QVQLVESGGGLVQAGGSLRLSCAASGLTFADNTMGWYRQAPGKERELVAAIDWSGGGTDYADSVKGRFTISRDNAKNTVYLQMNSLKPEDTAVYYCNAERTSWEDDYWGQGTQVTVSS”, “low polyreactivity”.

Regarding “QVQLVESGGGLVQAGGSLRLSCAASGINFNLYAMGWYRQAPGKERELVAAISRSGDSTNYADSVKGRFTISRDNAKNTVDLQMNSLKPEDTAVYYCAVGYRYLKWVDYWGQGTQVTVSS”, the “polyreactivity (PSR sort gate)” value is “high polyreactivity”. For “QVQLVESGGGLVQAGGSLRLSCAASGITFARYTMGWYRQAPGKERELVAAISWSGTSTYYADSVKGRFTISRDNAKNTVYLQMNSLKPEDTAVYYCAAGYSASRKVDYWGQGTQVTVSS”, the “polyreactivity (PSR sort gate)” value is given as “high polyreactivity”. For “QVQLVESGGRLVQAVGSLRLSCAASGFTSHKYAMGWYRQAPGKERELVAAITSSGGRTYYADSVKGRFTISRDNAKNTVYFQTNSLKPEDTAVYYCNKLGRVGDAREYWGQGTQVTVSS” the value was “high polyreactivity”; for “QVQLVESGGGLVQAGGSLRLSCAASGRTFYRYAMGWYRQAPGKERELVAAITTSGGSTYYADSVKGRFTISRDNAKNTVYLQMNSLKPEDTAVYYCAATYYGYHIRDDYWGQGTQVTVSS”, “low polyreactivity”.

Consider “QVQLVESGGGLVQAGGSLRLSCAASGFTFPRYAMGWYRQAPGKERELVAAIRRRGGSTYYADSVKGRFTISRDNAKNTVYLQMNSLKPEDTAVYYCATYNGVKGEASFDYWGQGTQVTVSS”, for which the “polyreactivity (PSR sort gate)” value is given as “high polyreactivity”.

Turning to “QVQLVESGGGLVQAGGSLRLSCPASGSIFPTYAMGRYRQAPGKERELVAAITTSGGNTFYADSVKGRFTISRDNAKNTVYLQMNRLKPEDTAVYYCAAYYSPYTVEYDYWGQGTLVTVSS”, the “polyreactivity (PSR sort gate)” value is on record as “low polyreactivity”. As to “QVQLVESGVGLVQAGGRLRLSCASSAIIFKIYAMGWYRQAPGKERELVADITSVGSTKYADSVKGRFTISRDNAKNTVYLQMNSLKPEDTAVYYCATDWVTSHDDDYWGQGTQVTVSS”, the “polyreactivity (PSR sort gate)” value is reported as “low polyreactivity”.

Take “QVQLVESGGGLVQAGGSLRLSCAASGLIFRQYAMGWYRPAPGKERELVAAITQTGGRTYYADSVKGRFTISRDNAKNTVYLQMNSLKPEDTAVYYCNALTFAAGDHYDYWGQGTQVTVSS”: the “polyreactivity (PSR sort gate)” value is “low polyreactivity”. In the case of “QVQLVESGGGLVQAGGSLRLTCAASGRTFRQYAMGWYRQAPGKERELVAAIRTNGGRTYYADSVKGRFTISRDYAKNTVYLQFNSLKPEDTAVYYCAVYAVVQGVLFDYWGQGTQVTVSS”, the “polyreactivity (PSR sort gate)” value is reported as “high polyreactivity”. For “QVQLVESGGGLVQAGGSLRLSCAASGFTVTRYAMGWYRQAPGKERELVAAITRSGSSTSYADSVKGRFTISRDNAKNTVSLQINSLKPEDTAVYYCAARLHSPRYRYDYWGQGTQVTVSS” the value was “high polyreactivity”; for “QVQLVESGGGLVQAGGSLRLSCAASGRIFRLYAMGWYRQAPGKERELVAAISKSGGSTYYADSVKGRFTISRDTATNTVYLQMNSLKPEDTAVYYCAADYRTHGGYEGTFDYWGQGTQVTVSS”, “low polyreactivity”; for “QVQLVESGGGLVQAGGSLRLSCAASGSTFRLYAMGWYRQAPGKERELVAVISRSGGRTYADSVKGRFTISRDNAKNTVYLQMNSLKPEDTAVYYCAKARHKSPTYTHDSWGQGTQVTVSS”, “high polyreactivity”. For “QVQLVESGGGIVQAGGSLRLICAASGLILYGYTMGWYRQAPGKDRQLVAAISRGGGGTYYADSVKGRFTISRDNVKNTVYLQINSLKPEDTAVYYCAAYVYSLGGEYFYWGQGTLVTVSS” the value was “high polyreactivity”; for “QVQLVESGRALVQAGGSLRLSCASSVRIFVRNAMGWYRQAPGKESELVAAISARGGRTNYADSVKGRFTISRDNAKNTVYLQMNSLKPDDTAVYYCAAVGFRAAYLYDYWGQGTQVTVSS”, “high polyreactivity”; for “QVQLVESGGGLVQAGGSLRLSCAASGRTFSNYVMGWYRQAPAKERELVAAITYSGGSTYYADSVKGRFTISRDNATNTVYLQMNSLKPEDTAVYYCARRWGGRGYYYWGQGTQVTVSS”, “high polyreactivity”.

Turning to “QVQLVESGGGLVQAGGSLRLSCAASGRIFGWYAMGSYRQAPGKEREFVAAITRRGGRTYYADSVKGRFTISRDNEKNNVYLQMNSLKPEDTAVYYCAVKYVRIGGVGPIVIYNYWGQGTQVTVSS”, the “polyreactivity (PSR sort gate)” value is “high polyreactivity”. In the case of “QVQLVESGGGLVQAGGSLRLSCAASGLTFVTYAKGWYRQAPGKERELVAAISYSGGSTYYADSVKGRFTISRDNAKNTVYLQMNSLKPEDTAVYYCNARSPQPDGRPPYNYWGQGTQVTVSS” it was “high polyreactivity”; in that of “QVQLVESGGGLVQAGGSLRLSCAASGSILEVYAMGWYRQAPGKERELVAAISDGDSTYYADSVKGRFTISRDNAKNTVYLQMNSLKPEDTAVYYCAAEFVGTLWWYDYWGQGTQVTVSS”, “low polyreactivity”.

For “QVQLVELGGGLVQAGGSLRLSCAASGGTFPRYAMGWYRQAPGKERELVAAITSRGDRTYYADSVKGRFTISRDNAKNTVYLQMNSLKPEDTAVYYCAARLYYSSYGRVKMDYWGQGTQVTVSS”, the “polyreactivity (PSR sort gate)” value is “high polyreactivity”. For “QVQLVESRGVLVQAGGSLRLSCAASGSTFTGYAMGWYRQAPGKERELVAGITGSGGSTYYADSVMGRFTISRDNAKITVYFQMNSLKPVDTAVYYCAAACWYHYVWLDYFWGQGTQVTVSS”, the “polyreactivity (PSR sort gate)” value is given as “low polyreactivity”. In the case of “QVQLVESGGGLVQAGGSLRLSCAASGFTFNDYAMGWYRQAPGKERELVAAIDWSGGRTYYADSVKGRFTISRDNAKNTVYLQMNSLKPDDTAVYYCAAVLYSRLYWYRLDYWGQGTQVTVSS” it was “low polyreactivity”. Consider “QVQLVESGGGLVQAGGSLRLSCAASGRTFGTYAIGWYRQAPGKERELVAAITGSGDRTYYADSVKGRFTISRDNAKNTVYLQMNSLKPEDTAVYYCAAYSDRSYGFWGQGTQVTVSS”, for which the “polyreactivity (PSR sort gate)” value is “low polyreactivity”.

With “QEQLQESGSGLVQAGGSLRLSCAASGNIFQDWVMGWYRQAPGKERELVAAISHGAITYYADSVKGRFTISRDNAKYTVYLQTNSLKREDTAVYYCAAYYIVEYLHGYWGQGTRVTVSS”, the “polyreactivity (PSR sort gate)” value was “low polyreactivity”. For “QVQLVESGGGLVQAGGSLRLSCAASGSTFLWNAMGWYRQAPAKERELVAAISYSGGSTYYADSVKGRFTISRDNAMNTVYLQKNSLKPEDTAFYYCAKEWFYDPYPPGYDSWGQGPQVTVSS”, the “polyreactivity (PSR sort gate)” value was “low polyreactivity”. For “QVQLVESVGGLVQAGGSLRLSCAASGRTFGHYAMGWYRQEPGKERELVAAITSRGGSTNYADSVKGRFTISRDNAKNTVYLQMNSLKPEDTAVYYCAADTLIPDYSATFGYWGEGTQVTVSS” the value was “high polyreactivity”. As to “QVQLVESGGGLDQAGGSLRLSCAASGSIFTGNAMGLYRQAPGKERELVAAISSSGGSTYYADSVKGRFTISRDNAKNTVYLQMNSLKPEDTAVYYCAAYKYFLQYDYWGQGTQVTVSS”, the “polyreactivity (PSR sort gate)” value is “low polyreactivity”. For “QVQLVESGGGLVQAGGSLRLSCAASGSTFSDNAMGWYRQAPGKERELVAAINETGGSTYYADSVKGRFTISRDNAKNTVYLQMNSLKPEDTAVYYCNADIDPYGATYAIEYDYWGQGTQVTVSS” the value was “low polyreactivity”; for “QVQLVESGGGLVQAGGSLRLSCAASGSTFYQYSMGLYRQAHVKEREFVAAITTIGGLTFYADSVKGRFTISRDNAKNTVYLQMHSLKPEDTAVYYCAAGYRAWDPYGHYGYWGQGTQVTVSS”, “high polyreactivity”; for “QVQLLESGGGLVQAGGSLRLSGAASGRIFRWYAMGWYRQAPGKEREFVAAITSSGGSTYYADSVMGRFTISRDNAKNTVYLQMNSLKPDDTAGYYCAALVYLGGSYSRGYDWGQGTQVTVSS”, “high polyreactivity”. “QVQLVESGGGIVQAGGSLRLSCAASGNNIGGNAMGWYRQAPGKERELVAAISNSGVRTYYADSVKGRFTISRDNAKNSVDLQMNSLKPEDTAVYYCYVLGNYYGKFDYWGQGTQVTVSS”: the “polyreactivity (PSR sort gate)” value was “high polyreactivity”.

(Values after the nanobody polyreactivity screen of Harvey et al. (2022).)
